Test results published in patent US20240279344A1 (CDR LIFE, published 2024).
Positions count from the first letter of the chain named.

B1: M0850 scFv (scFv)
scFv: QEQLEESGGGLVTPGTPLTLTCTASGFSLSSYAMIWVRQAPGKGLEWIGTINDGGTAFYANWVKGRFTISRTSTTVDLKMTSPTTEDTATYFCARAYGSNGDVYWGYVNLWGQGTLVTVSSGGGGSGGGGSGGGGSGGGGASELVMTQTPASVSEPVGGTVTIKCQASQSIGSNLAWYQQKPGQPPKLLIYAAANLASGVSSRFKGSRSGTEYTLTISGVQAADAATYYCQQGYSSSNVANVFGGGTELEIL
notes: Rabbit scFv identified by phage display
B2: M0853 scFv (scFv)
scFv: QQQLVESGGGLVTPGTPLTLTCTVSGFSLSNYAMGWVRQAPGKGLEWIGTINDGGTAFYANWLKGRFTISRTSTTVDLKITSPTTEDTATYFCARAYGSNGDVYWGYFNLWGQGTLVTVSSGGGGSGGGGSGGGGSGGGGASELVMTQTASPVSAAVGGTVTINCQASQSISSRSLSWYQQKPGQPPKLLIYEASKLASGVPSRFSGSGSGTQFTLTISGVQADDAATYYCQQGYSSSNVDNFGGGTEVVVK
notes: as for B1
B3: M1139 (bispecific antibody, V domains shown)
VH: EVQLLESGGGSVQPGGSLRLSCTVSGFSLSNYAMSWVRQAPGKGLEWIGIVSSGGTTYAASWAKGRFTISKDTSKNTVYLQMNSLRAEDTASYYCAKDLYYGPTTYSAFNLWGQGTSVTVSS
VL: SYELTQPPSVSVSPGQTASITCTADTLSRSYASWYQQKPGQSPVLVIYRDTSRPSGIPERFSGSNSGNTATLTISGTQAMDEADYYCATRPSSGSNFQLFGGGTKLTVL
notes: Variant of humanized M0763; tested in SPR as anti-CD3 Fab x anti-MAGE-A4 scFv bispecific
B4: M1310 (bispecific antibody, V domains shown)
VH: EVQLLESGGGSVQPGGSLRLSCTVSGFSLSNYAMSWVRQAPGKGLEWIGIVSSGGTTYYASWAKGRFTISKDTSKNTVYLQMNSLRAEDTASYYCAKDLYYGPNTDYSAANLWGQGTSVTVSS
VL: B3 VL with L99A
notes: as for B3
B5: M1142 (bispecific antibody, V domains shown)
VH: B3 VH with A59Y, W62A
VL: B3 VL
notes: as for B3
B6: M1141 (bispecific antibody, V domains shown)
VH: B3 VH with A59Y, S61A
VL: B3 VL
notes: as for B3
B7: M1309 (bispecific antibody, V domains shown)
VH: B3 VH with A59Y, T104S, S107F, A108V, F109A
VL: B3 VL with L99A
notes: as for B3
B8: M1297 (bispecific antibody, V domains shown)
VH: B3 VH with A59Y, T104S, S107F, A108V, F109A
VL: B3 VL
notes: as for B3
B9: M1301 (bispecific antibody, V domains shown)
VH: B3 VH with A59Y, F109A
VL: B3 VL with P91D, S92F
notes: as for B3
B10: M1144 (bispecific antibody, V domains shown)
VH: B3 VH with A59Y, K64A
VL: B3 VL
notes: as for B3
B11: M1253 (bispecific antibody, V domains shown)
VH: B3 VH with A59Y, F109A
VL: B3 VL with L99A
notes: as for B3
B12: M1143 (bispecific antibody, V domains shown)
VH: B3 VH with A59Y, A63S
VL: B3 VL
notes: as for B3
B13: M1178 (bispecific antibody, V domains shown)
VH: B3 VH with A59Y, F109A
VL: B3 VL with A88Q, T89A
notes: as for B3
B14: M1302 (bispecific antibody, V domains shown)
VH: B4 VH
VL: B3 VL
notes: as for B3
B15: M1177 (bispecific antibody, V domains shown)
VH: B3 VH with A59Y, F109A
VL: B3 VL with F97T, Q98V, L99V
notes: as for B3
B16: M1300 (bispecific antibody, V domains shown)
VH: B3 VH with A59Y, F109A
VL: B3 VL with P91L, S92F
notes: as for B3
B17: M1202 (bispecific antibody, V domains shown)
VH: B3 VH with A59Y, A108S, F109A
VL: B3 VL
notes: as for B3
B18: M1298 (bispecific antibody, V domains shown)
VH: B3 VH with A59Y, F109A
VL: B3 VL with S92W, S93P
notes: as for B3
B19: M1169 (bispecific antibody, V domains shown)
VH: B3 VH with A59Y, F109A
VL: B3 VL with Q98V
notes: as for B3
B20: M1140 (bispecific antibody, V domains shown)
VH: B3 VH with A59Y, A60S
VL: B3 VL
notes: as for B3
B21: M1171 (bispecific antibody, V domains shown)
VH: B3 VH with A59Y, F109L
VL: B3 VL
notes: as for B3
B22: M1145 (bispecific antibody, V domains shown)
VH: B3 VH with A59Y, G65A
VL: B3 VL
notes: as for B3
B23: M1172 (bispecific antibody, V domains shown)
VH: B3 VH with A59Y, F109P
VL: B3 VL
notes: as for B3
B24: M1299 (bispecific antibody, V domains shown)
VH: B3 VH with A59Y, F109A
VL: B3 VL with S92F, S93P
notes: as for B3
B25: M1176 (bispecific antibody, V domains shown)
VH: B3 VH with A59Y, F109A
VL: B3 VL with N96V
notes: as for B3
B26: M0849 scFv (scFv)
scFv: QEQLEESGGGLVTPGGTLTLTCTVSGFSLSNYAMGWVRQAPGKGLEWIGTINDGGTAFYAKWLKGRFTISRTSTTVDLKITSPTTEDTATYFCARAYGSNGDVYWGYFNLWGQGTLVTISSGGGGSGGGGSGGGGSGGGGASELVMTQTPSSVSEPVGGTVTIKCQASQSIGSNLAWYQQRPGQPPKLLIYSASTLASGVSSRFKGSGSGTESTLTISGVQAADAATYYCQQGYSSSNVDNVFGGGTELEIL
notes: as for B1
B27: M0855 scFv (scFv)
scFv: QQQLEESGGGLVTPGTPLTLTCTVSGIDLSSYAMGWVRQAPGKGLEWIGTINDGGSAFYASWVKGRFTISRTSTTVDLKITSPTAEDTATYFCAKTYGTNGDVYWGYFNLWGQGTLVTISSGGGGSGGGGSGGGGSGGGGASELVMTQTPASVSEPVGGTVTIKCQASQSIGSNLAWYQQKPGQPPKLLIYYESILASGVPSRFSGSGSGTEYTLTISGAQADDAATYYCQQGYSSSNIDNAFGGGTEVVVK
notes: as for B1
B28: M0856 scFv (scFv)
scFv: B27 scFv with D240L
notes: as for B1
B29: M0854 scFv (scFv)
scFv: QSVKESWGRLVTPGGSLTLTCTVSGIDLNNYAMGWVRQAPGKGLEWIGTINNDGATYYPSWARGRFTISKTSTTVDLKITSPTTEDTATYFCARTYGSNGDVYWGYFNLWGQGTLVTVSSGGGGSGGGGSGGGGSGGGGASALELTQTPASVEVAVGGTVTINCQASQSIGGALNWYQQKSGQPPKLLIYLASTLASGVSSRFKGSGSGTQFTLTISGVEAADAATYYCQQGYSASNIDNAFGGGTEVVVK
notes: as for B1
B30: M0851 scFv (scFv)
scFv: QEQLEESGGGLVTPGTPLTLTCTASGFSLSSYAMIWVRQAPGKGLEWIGTINDGGTAFYASWVKGRFTISRTSTTVDLKITSPTTEDTATYFCARAYGSNGDVYWGYVNLWGQGTLVTISSGGGGSGGGGSGGGGSGGGGASELVMTQTPSSVSAAVGGTVTINCQASQNIGSVFAWYQQKPGQPPKLLIYKASSLASGVPSRFKGSGSGTQFTLTISGVEAADAATYYCQQGASSSNVDNIFGGGTEVVVK
notes: as for B1
B31: M0857 scFv (scFv)
scFv: QQQLVESGGRLVTPGTPLTLTCTASGIDLNSNAMSWVRQGPGKGLEWIGDIWSGGYTDYASWAKGRFTISKTSTTVDLKMTSLTAADTATYFCARDRLAGDGVVDYDLWGQGTLVTISSGGGGSGGGGSGGGGSGGGGASELDMTQTPASVEVAVGGTVTIKCQASQNIYSNLAWYQQKPGQRPKLLIYGASTLASGVPSRFKGSGSGTEYTLTINGVQAADAATYYCQQGFSSSNVDNVFGGGTEVVVK
notes: as for B1
B32: M0848 scFv (scFv)
scFv: QEQLVESGGGLVTPGTPLTLTCTVSGFSLSSYAMGWVRQAPGKGLEWIGTINDGGTAFYASWVKGRFTISRTSTTVDLRVTSPTTEDTATYFCARAYGSNGDVYWGYFNLWGQGTLVTVSSGGGGSGGGGSGGGGSGGGGASELDLTQTPASVEVAVGGTVTIKCQASQSIGSYLSWYQQKPGQRPKLLIFRASTLASGVSSRFKGSGSGTQFTLTISGVECADAATYYCQQGYSSTNLDNVFGGGTEVVVK
notes: as for B1
B33: M0852 scFv (scFv)
scFv: QQQLEESGGGLVTPGTPLTLTCTVSGFSLSNYAMGWVRQAPGKGLEWIGTINDGGTAFYANWLKGRFTISRTSTTVDLKITSPTTEDTATYFCARAYGSNGDVYWGYFNLWGQGTLVTVSSGGGGSGGGGSGGGGSGGGGASELVMTQTASPVSAAVGGTVTINCQASQSISSRSLSWYQQKPGQPPKLLIYEASKLASGVPSRFSGSGSGTQFTLTISGVQADDAATYYCQQGYSSSNVDNVFGGGTEVVVK
notes: as for B1

Assays:
[1] = target: T1, HLA-A2/MAGE-A4 complex, recombinant (HLA-A*02:01 extracellular domain, human b2m, MAGE-A4 peptide 230-239 …) (human, UniProt P04439 25-299 at identity 0.94); P61769 21-119); experiment: phage display biopanning and screening
T1 construct: also called MAGE-A4 pMHC; MAGE-A4/HLA-A2 complex

[2] = target: T1, HLA-A2/MAGE-A4 complex, recombinant …; experiment: SPR, monovalent

Row | Binder | binding result [1] | Kd [2]
1 | B1 | binds | 
2 | B2 | binds | 
3 | B3 |  | 2.1 nM
4 | B4 |  | 0.35 nM
5 | B5 |  | 2.9 nM
6 | B6 |  | 1.2 nM
7 | B7 |  | 0.09 nM
8 | B8 |  | 0.09 nM
9 | B9 |  | 0.12 nM
10 | B10 |  | 2.3 nM
11 | B11 |  | 2.55 nM
12 | B12 |  | 2.4 nM
13 | B13 |  | 8.3 nM
14 | B14 |  | 0.6 nM
15 | B15 |  | 4.2 nM
16 | B16 |  | 0.12 nM
17 | B17 |  | 3.9 nM

Row | Binder | binding result [1] | Kd [2]
18 | B18 |  | 0.07 nM
19 | B19 |  | 3.2 nM
20 | B20 |  | 2.8 nM
21 | B21 |  | 4.4 nM
22 | B22 |  | 2.1 nM
23 | B23 |  | 1.5 nM
24 | B24 |  | 0.05 nM
25 | B25 |  | 6 nM
26 | B26 | binds | 
27 | B27 | binds | 
28 | B28 | binds | 
29 | B29 | binds | 
30 | B30 | binds | 
31 | B31 | binds | 
32 | B32 | binds | 
33 | B33 | binds | 
